In the RNAGym collection of RNA variant scans (doi:10.1093/molbev/msab373) one finds reverse-splicing fitness data, which are given here for 83 variants.

First the molecules themselves.
B1: Azoarcus group I ribozyme (parent)
chain: GUGCCUUGCGCCGGGAAACCACGCAAGGGAUGGUGUCAAAUUCGGCGAAACCUAAGCGCCCGCCCGGGCGUAUGGCAACGCCGAGCCAAGCUUCGGCGCCUGCGCCGAUGAAGGUGUAGAGACUAGACGGCACCCACCUAAGGCAAACGCUAUGGUGAAGGCAUAGUCCAGGGAGUGGCGAAAGUCACACAAACCGG

This data set covers variants of B1. The data set can be described thus: reverse-splicing fitness (ratio to wild type); higher = more active; in vitro selection; Mg2+ level not given. In short, it runs like this: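 An in vitro group I ribozyme library with randomized positions was T7-transcribed and gel-purified. In triplicate, 10 pmol RNA in EPPS pH 7.5 was reacted with 50 pmoles of a 30-nt RNA substrate for 1 h at 37 °C across several added MgCl2 levels (1–48 mM), then stopped with EDTA. Products were reverse transcribed from a substrate-complementary primer, PCR-amplified and sequenced (HiSeq 4000). Fitness is a variant's read proportion after selection over that before, normalised to wild type.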
In the case of C82G A111C A120G A145G C150U C169G, the reverse-splicing fitness was 0.0134.
The figure for C82G A111C A120G A145G C150U C169U is 0.011; for C82G A111C A120G A145G C150U C169A it is 0.0112; for C82G A111C A120G A145G C150G C169A it is 0.009.
Turning to C82G A111C A120G A145G C150G C169G, the reverse-splicing fitness amounted to 0.00765.
Take C82G A111C A120G A145G C150G C169U: the reverse-splicing fitness stood at 0.00859.
The figure for C82G A111C A120G C150G C169A U176G is 0.00686.
The figure for C82G A111C A120G C150G C169A U176C is 0.0102; for C82G A111C A120G C150G C169A U176A it is 0.00915; for C82G A111C A120G C150G C169G U176G it is 0.00467.
Take C82G A111C A120G C150G C169G U176A: the reverse-splicing fitness was found to be 0.00677.
C82G A111C A120G C150G C169G U176C: the reverse-splicing fitness is 0.00508.
The figure for C82G A111C A120G A145G C150A C169G U176G is 0.0058; for C82G A111C A120G A145G C150U C169G U176C it is 0.0175; for C82G A111C A120G A145G C150U C169G U176G it is 0.00501.
In the case of C82G A111C A120G A145G C150U C169G U176A, the reverse-splicing fitness amounted to 0.0133.
For the variant C82G A111C A120G A145U C150U C169U U176G, the reverse-splicing fitness stood at 0.00531.
The figure for C82G A111C A120G A145U C150U C169U U176A is 0.0143; for C82G A111C A120G A145U C150U C169U U176C it is 0.0139.
Under C82G A111C A120G A145G C169A U176G stands 0.00447; under C82G A111C A120G A145G C169A U176A, 0.0209; under C82G A111C A120G A145G C169A U176C, 0.0271.
Under C82G A111C A120G C150A U176C stands 0.0193.
Consider C82G A111C A120G C150A U176A, for which the reverse-splicing fitness is 0.014.
Take C82G A111C A120G C150A U176G: the reverse-splicing fitness was 0.0081.
As for C82G A111C A120G A145U C150U C169G U176C, the reverse-splicing fitness is 0.0134.
For C82G A111C A120G A145U C150U C169G U176A, the reverse-splicing fitness amounted to 0.0127.
Consider C82G A111C A120G A145U C150U C169G U176G, for which the reverse-splicing fitness is 0.00519.
As for C82G A111C A120G A145U C150U, the reverse-splicing fitness came out at 0.0124.
Consider C82G A111C A120G A145U C150G, for which the reverse-splicing fitness is 0.00698.
The figure for C82G A111C A120G A145U C150A is 0.00783; for C82G A111C A120G A145G C169U U176A it is 0.0161.
Under C82G A111C A120G A145G C169U U176C stands 0.0145; under C82G A111C A120G A145G C169U U176G, 0.00423.
Under C82G A111C A120G C150U U176C stands 0.0217; under C82G A111C A120G C150U U176G, 0.00715; under C82G A111C A120G C150U U176A, 0.0119.
With C82G A111C A120G C150A C169A U176C, the reverse-splicing fitness is 0.0214.
On to C82G A111C A120G C150A C169A U176G, for which the reverse-splicing fitness was determined as 0.00716.
In the case of C82G A111C A120G C150A C169A U176A, the reverse-splicing fitness amounted to 0.0179.
Turning to C82G A111C A120G A145U C150U C169A U176G, the reverse-splicing fitness was 0.006.
The figure for C82G A111C A120G A145U C150U C169A U176C is 0.0109.
The figure for C82G A111C A120G A145U C150U C169A U176A is 0.0109.
Under C82G A111C A120G C150G C169G stands 0.00781; under C82G A111C A120G C150G C169U, 0.00835; under C82G A111C A120G C150G C169A, 0.00888.
On to C82G A111C A120G A145U C150A U176C, for which the reverse-splicing fitness amounted to 0.0172.
The figure for C82G A111C A120G A145U C150A U176A is 0.0121.
Regarding C82G A111C A120G A145U C150A U176G, the reverse-splicing fitness is 0.00582.
Under C82G A111C A120G A145G C150A U176G stands 0.007.
The figure for C82G A111C A120G A145G C150A U176C is 0.0185.
With C82G A111C A120G A145G C150A U176A, the reverse-splicing fitness was 0.00974.
Under C82G A111C A120G A145U C150G C169U stands 0.0085.
Regarding C82G A111C A120G A145U C150G C169G, the reverse-splicing fitness was determined as 0.00781.
The figure for C82G A111C A120G A145U C150G C169A is 0.00965; for C82G A111C A120G A145G C150G C169U U176G it is 0.00731; for C82G A111C A120G A145G C150G C169U U176C it is 0.0127.
The figure for C82G A111C A120G A145G C150G C169U U176A is 0.0106; for C82G A111C A120G A145U C150A C169A U176G it is 0.00581.
As for C82G A111C A120G A145U C150A C169A U176A, the reverse-splicing fitness turned out to be 0.0128.
Under C82G A111C A120G A145U C150A C169A U176C stands 0.0105; under C82G A111C A120G A145G C150G U176A, 0.00732; under C82G A111C A120G A145G C150G U176C, 0.0113.
For the variant C82G A111C A120G A145G C150G U176G, the reverse-splicing fitness came to 0.00597.
Regarding C82G A111C A120G A145G C150G C169G U176A, the reverse-splicing fitness amounted to 0.0101.
The figure for C82G A111C A120G A145G C150G C169G U176C is 0.0123; for C82G A111C A120G A145G C150G C169G U176G it is 0.00591.
The figure for C82G A111C A120G A145U C150G C169A U176A is 0.00957; for C82G A111C A120G A145U C150G C169A U176C it is 0.0101; for C82G A111C A120G A145U C150G C169A U176G it is 0.00496.
Regarding C82G A111C A120G A145G C150A C169U, the reverse-splicing fitness was 0.00904.
C82G A111C A120G A145U C150G U176C: the reverse-splicing fitness amounted to 0.015.
For C82G A111C A120G A145U C150G U176A, the reverse-splicing fitness stood at 0.00814.
Under C82G A111C A120G A145U C150G U176G stands 0.00375; under C82G A111C A120G A145U, 0.0164.
The figure for C82G A111C A120G A145U C150A C169A is 0.00884; for C82G A111C A120G A145U C150A C169G it is 0.00764; for C82G A111C A120G A145U C150A C169U it is 0.00666.
Regarding C82G A111C A120G A145G C150G C169A U176C, the reverse-splicing fitness was found to be 0.0135.
Under C82G A111C A120G A145G C150G C169A U176A stands 0.0144; under C82G A111C A120G A145G C150G C169A U176G, 0.00843; under C82G A111C A120G A145G U176G, 0.00675.
Turning to C82G A111C A120G A145G U176C, the reverse-splicing fitness was 0.0204.
